Reference: US20230103631A1, “PEPTIDES AS SELECTIVE GIP RECEPTOR AGONISTS” (Sanofi, priority 2020, published 2023)
*1 amine or outer side, *2 acyl side, *3 side chain or, on linkers, in order; H or OH if unused. Where no end group is shown, it is not given here. Side-chain parts run from the residue outwards. [ ]: non-standard residue; d: D form. The star is where a group is joined. C20 diacid = O=C(O)CCCCCCCCCCCCCCCCCCC(=O)*; C18 diacid = O=C(O)CCCCCCCCCCCCCCCCC(=O)*; γGlu = O=C(O)[C@H](CCC(=O)[*:2])N[*:1]; NMeY = CN[C@@H](Cc1ccc(O)cc1)C(=O)O; AEEA = NCCOCCOCC(=O)O; Aib = CC(C)(N)C(=O)O

T1: human GIP receptor (human, UniProt P48546 22-466)
T1 sequence (looked up): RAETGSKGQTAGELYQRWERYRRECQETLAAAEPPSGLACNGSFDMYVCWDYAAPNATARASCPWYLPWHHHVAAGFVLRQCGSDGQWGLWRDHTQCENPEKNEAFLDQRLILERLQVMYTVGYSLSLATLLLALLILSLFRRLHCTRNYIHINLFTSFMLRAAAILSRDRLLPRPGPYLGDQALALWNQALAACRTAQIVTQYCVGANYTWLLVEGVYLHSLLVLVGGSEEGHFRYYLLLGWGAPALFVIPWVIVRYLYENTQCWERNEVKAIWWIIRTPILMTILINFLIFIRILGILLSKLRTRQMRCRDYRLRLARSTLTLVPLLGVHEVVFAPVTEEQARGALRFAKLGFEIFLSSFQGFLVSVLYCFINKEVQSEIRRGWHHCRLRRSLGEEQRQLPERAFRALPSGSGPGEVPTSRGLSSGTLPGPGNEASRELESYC

B1: SEQ ID NO: 12 (peptide)
peptide: Y[Aib]EGTFISDLSI[Aib]K([AEEA-AEEA-AEEA-γGlu-C18 diacid])DRIHQEEFIEWLLAQGPSSGAPPPS-NH2
modifications: N-terminus assumed
SMILES: CC[C@H](C)[C@H](NC(=O)[C@H](Cc1ccccc1)NC(=O)[C@H](CCC(=O)O)NC(=O)[C@H](CCC(=O)O)NC(=O)[C@H](CCC(N)=O)NC(=O)[C@H](Cc1c[nH]cn1)NC(=O)[C@@H](NC(=O)[C@H](CCCNC(=N)N)NC(=O)[C@H](CC(=O)O)NC(=O)[C@H](CCCCNC(=O)COCCOCCNC(=O)COCCOCCNC(=O)COCCOCCNC(=O)CC[C@H](NC(=O)CCCCCCCCCCCCCCCCC(=O)O)C(=O)O)NC(=O)C(C)(C)NC(=O)[C@@H](NC(=O)[C@H](CO)NC(=O)[C@H](CC(C)C)NC(=O)[C@H](CC(=O)O)NC(=O)[C@H](CO)NC(=O)[C@@H](NC(=O)[C@H](Cc1ccccc1)NC(=O)[C@@H](NC(=O)CNC(=O)[C@H](CCC(=O)O)NC(=O)C(C)(C)NC(=O)[C@@H](N)Cc1ccc(O)cc1)[C@@H](C)O)[C@@H](C)CC)[C@@H](C)CC)[C@@H](C)CC)C(=O)N[C@@H](CCC(=O)O)C(=O)N[C@@H](Cc1c[nH]c2ccccc12)C(=O)N[C@@H](CC(C)C)C(=O)N[C@@H](CC(C)C)C(=O)N[C@@H](C)C(=O)N[C@@H](CCC(N)=O)C(=O)NCC(=O)N1CCC[C@H]1C(=O)N[C@@H](CO)C(=O)N[C@@H](CO)C(=O)NCC(=O)N[C@@H](C)C(=O)N1CCC[C@H]1C(=O)N1CCC[C@H]1C(=O)N1CCC[C@H]1C(=O)N[C@@H](CO)C(N)=O
B2: SEQ ID NO: 16 (peptide)
peptide: Y[Aib]EGTFISDLSI[Aib]K([Gly-Gly-Gly-γGlu-C18 diacid])DRIHQEEFIEWLLAQGPSSGAPPPS-NH2
modifications: N-terminus assumed
SMILES: CC[C@H](C)[C@H](NC(=O)[C@H](Cc1ccccc1)NC(=O)[C@H](CCC(=O)O)NC(=O)[C@H](CCC(=O)O)NC(=O)[C@H](CCC(N)=O)NC(=O)[C@H](Cc1c[nH]cn1)NC(=O)[C@@H](NC(=O)[C@H](CCCNC(=N)N)NC(=O)[C@H](CC(=O)O)NC(=O)[C@H](CCCCNC(=O)CNC(=O)CNC(=O)CNC(=O)CC[C@H](NC(=O)CCCCCCCCCCCCCCCCC(=O)O)C(=O)O)NC(=O)C(C)(C)NC(=O)[C@@H](NC(=O)[C@H](CO)NC(=O)[C@H](CC(C)C)NC(=O)[C@H](CC(=O)O)NC(=O)[C@H](CO)NC(=O)[C@@H](NC(=O)[C@H](Cc1ccccc1)NC(=O)[C@@H](NC(=O)CNC(=O)[C@H](CCC(=O)O)NC(=O)C(C)(C)NC(=O)[C@@H](N)Cc1ccc(O)cc1)[C@@H](C)O)[C@@H](C)CC)[C@@H](C)CC)[C@@H](C)CC)C(=O)N[C@@H](CCC(=O)O)C(=O)N[C@@H](Cc1c[nH]c2ccccc12)C(=O)N[C@@H](CC(C)C)C(=O)N[C@@H](CC(C)C)C(=O)N[C@@H](C)C(=O)N[C@@H](CCC(N)=O)C(=O)NCC(=O)N1CCC[C@H]1C(=O)N[C@@H](CO)C(=O)N[C@@H](CO)C(=O)NCC(=O)N[C@@H](C)C(=O)N1CCC[C@H]1C(=O)N1CCC[C@H]1C(=O)N1CCC[C@H]1C(=O)N[C@@H](CO)C(N)=O
B3: SEQ ID NO: 14 (peptide)
peptide: Y[Aib]EGTFISDLSI[Aib]K([AEEA-AEEA-γGlu-γGlu-C18 diacid])DRIHQEEFIEWLLAQGPSSGAPPPS-NH2
modifications: N-terminus assumed
SMILES: CC[C@H](C)[C@H](NC(=O)[C@H](Cc1ccccc1)NC(=O)[C@H](CCC(=O)O)NC(=O)[C@H](CCC(=O)O)NC(=O)[C@H](CCC(N)=O)NC(=O)[C@H](Cc1c[nH]cn1)NC(=O)[C@@H](NC(=O)[C@H](CCCNC(=N)N)NC(=O)[C@H](CC(=O)O)NC(=O)[C@H](CCCCNC(=O)COCCOCCNC(=O)COCCOCCNC(=O)CC[C@H](NC(=O)CC[C@H](NC(=O)CCCCCCCCCCCCCCCCC(=O)O)C(=O)O)C(=O)O)NC(=O)C(C)(C)NC(=O)[C@@H](NC(=O)[C@H](CO)NC(=O)[C@H](CC(C)C)NC(=O)[C@H](CC(=O)O)NC(=O)[C@H](CO)NC(=O)[C@@H](NC(=O)[C@H](Cc1ccccc1)NC(=O)[C@@H](NC(=O)CNC(=O)[C@H](CCC(=O)O)NC(=O)C(C)(C)NC(=O)[C@@H](N)Cc1ccc(O)cc1)[C@@H](C)O)[C@@H](C)CC)[C@@H](C)CC)[C@@H](C)CC)C(=O)N[C@@H](CCC(=O)O)C(=O)N[C@@H](Cc1c[nH]c2ccccc12)C(=O)N[C@@H](CC(C)C)C(=O)N[C@@H](CC(C)C)C(=O)N[C@@H](C)C(=O)N[C@@H](CCC(N)=O)C(=O)NCC(=O)N1CCC[C@H]1C(=O)N[C@@H](CO)C(=O)N[C@@H](CO)C(=O)NCC(=O)N[C@@H](C)C(=O)N1CCC[C@H]1C(=O)N1CCC[C@H]1C(=O)N1CCC[C@H]1C(=O)N[C@@H](CO)C(N)=O
B4: SEQ ID NO: 15 (peptide)
peptide: Y[Aib]EGTFISDLSI[Aib]K([AEEA-AEEA-γGlu-γGlu-C20 diacid])DRIHQEEFIEWLLAQGPSSGAPPPS-NH2
modifications: N-terminus assumed
SMILES: CC[C@H](C)[C@H](NC(=O)[C@H](Cc1ccccc1)NC(=O)[C@H](CCC(=O)O)NC(=O)[C@H](CCC(=O)O)NC(=O)[C@H](CCC(N)=O)NC(=O)[C@H](Cc1c[nH]cn1)NC(=O)[C@@H](NC(=O)[C@H](CCCNC(=N)N)NC(=O)[C@H](CC(=O)O)NC(=O)[C@H](CCCCNC(=O)COCCOCCNC(=O)COCCOCCNC(=O)CC[C@H](NC(=O)CC[C@H](NC(=O)CCCCCCCCCCCCCCCCCCC(=O)O)C(=O)O)C(=O)O)NC(=O)C(C)(C)NC(=O)[C@@H](NC(=O)[C@H](CO)NC(=O)[C@H](CC(C)C)NC(=O)[C@H](CC(=O)O)NC(=O)[C@H](CO)NC(=O)[C@@H](NC(=O)[C@H](Cc1ccccc1)NC(=O)[C@@H](NC(=O)CNC(=O)[C@H](CCC(=O)O)NC(=O)C(C)(C)NC(=O)[C@@H](N)Cc1ccc(O)cc1)[C@@H](C)O)[C@@H](C)CC)[C@@H](C)CC)[C@@H](C)CC)C(=O)N[C@@H](CCC(=O)O)C(=O)N[C@@H](Cc1c[nH]c2ccccc12)C(=O)N[C@@H](CC(C)C)C(=O)N[C@@H](CC(C)C)C(=O)N[C@@H](C)C(=O)N[C@@H](CCC(N)=O)C(=O)NCC(=O)N1CCC[C@H]1C(=O)N[C@@H](CO)C(=O)N[C@@H](CO)C(=O)NCC(=O)N[C@@H](C)C(=O)N1CCC[C@H]1C(=O)N1CCC[C@H]1C(=O)N1CCC[C@H]1C(=O)N[C@@H](CO)C(N)=O
B5: SEQ ID NO: 13 (peptide)
peptide: [NMeY][Aib]EGTFISDLSI[Aib]K([AEEA-AEEA-γGlu-C18 diacid])DRIHQEEFIEWLLAQGPSSGAPPPS-NH2
modifications: N-terminus assumed
SMILES: CC[C@H](C)[C@H](NC(=O)[C@H](Cc1ccccc1)NC(=O)[C@H](CCC(=O)O)NC(=O)[C@H](CCC(=O)O)NC(=O)[C@H](CCC(N)=O)NC(=O)[C@H](Cc1c[nH]cn1)NC(=O)[C@@H](NC(=O)[C@H](CCCNC(=N)N)NC(=O)[C@H](CC(=O)O)NC(=O)[C@H](CCCCNC(=O)COCCOCCNC(=O)COCCOCCNC(=O)CC[C@H](NC(=O)CCCCCCCCCCCCCCCCC(=O)O)C(=O)O)NC(=O)C(C)(C)NC(=O)[C@@H](NC(=O)[C@H](CO)NC(=O)[C@H](CC(C)C)NC(=O)[C@H](CC(=O)O)NC(=O)[C@H](CO)NC(=O)[C@@H](NC(=O)[C@H](Cc1ccccc1)NC(=O)[C@@H](NC(=O)CNC(=O)[C@H](CCC(=O)O)NC(=O)C(C)(C)NC(=O)[C@H](Cc1ccc(O)cc1)NC)[C@@H](C)O)[C@@H](C)CC)[C@@H](C)CC)[C@@H](C)CC)C(=O)N[C@@H](CCC(=O)O)C(=O)N[C@@H](Cc1c[nH]c2ccccc12)C(=O)N[C@@H](CC(C)C)C(=O)N[C@@H](CC(C)C)C(=O)N[C@@H](C)C(=O)N[C@@H](CCC(N)=O)C(=O)NCC(=O)N1CCC[C@H]1C(=O)N[C@@H](CO)C(=O)N[C@@H](CO)C(=O)NCC(=O)N[C@@H](C)C(=O)N1CCC[C@H]1C(=O)N1CCC[C@H]1C(=O)N1CCC[C@H]1C(=O)N[C@@H](CO)C(N)=O

Target: T1, human GIP receptor
Assay: cell-based or functional assay

Q: With B1 as the binder, how does the “EC50 hGIPR 0% HSA, cAMP in HEK-293 cells” value read?
A: 0.26 pM

Q: What about the “EC50 hGIPR 0.1% HSA, cAMP in HEK-293 cells” value (“EC50 hGIPR 0.1% HSA, cAMP” for short) of the same binder?
A: 2.38 pM

Q: B2 was tested. Which “EC50 hGIPR 0% HSA, cAMP in HEK-293 cells” value did it give?
A: 0.19 pM

Q: And the “EC50 hGIPR 0.1% HSA, cAMP” value?
A: 2.55 pM

Q: With B3 as the binder, how does the “EC50 hGIPR 0% HSA, cAMP in HEK-293 cells” value read?
A: 0.23 pM

Q: And the “EC50 hGIPR 0.1% HSA, cAMP” value?
A: 1.56 pM

Q: What does the source list for B4?
A: EC50 hGIPR 0% HSA, cAMP in HEK-293 cells: 0.34 pM; EC50 hGIPR 0.1% HSA, cAMP in HEK-293 cells: 7.65 pM

Q: B5 was tested. Which “EC50 hGIPR 0% HSA, cAMP in HEK-293 cells” value did it give?
A: 0.2 pM

Q: What about the “EC50 hGIPR 0.1% HSA, cAMP” value of the same binder?
A: 1.76 pM

Target: human GLP-1 receptor (human, UniProt P43220 24-463)
Assay: cell-based or functional assay

Q: B1 was tested. Which “EC50 hGLP-1R 0% HSA, cAMP in HEK-293 cells” value (from here on “EC50 hGLP-1R 0% HSA, cAMP”) did it give?
A: > 10000 pM

Q: B2 was tested. Which “EC50 hGLP-1R 0% HSA, cAMP” value did it give?
A: > 10000 pM

Q: For B3, which “EC50 hGLP-1R 0% HSA, cAMP” value is on record?
A: > 10000 pM

Q: Which “EC50 hGLP-1R 0% HSA, cAMP” value does the source give for B4 here?
A: > 10000 pM

Q: B5 was tested. Which “EC50 hGLP-1R 0% HSA, cAMP” value did it give?
A: > 10000 pM
